Assay [1] concerns the target T1, human DLL3 on cells (human, UniProt Q9NYJ7 27-618).
T1 construct: Endogenous on H1184 and SHP77; Cell line is named under assay; also called H1184; DLL3/H82
T1 sequence: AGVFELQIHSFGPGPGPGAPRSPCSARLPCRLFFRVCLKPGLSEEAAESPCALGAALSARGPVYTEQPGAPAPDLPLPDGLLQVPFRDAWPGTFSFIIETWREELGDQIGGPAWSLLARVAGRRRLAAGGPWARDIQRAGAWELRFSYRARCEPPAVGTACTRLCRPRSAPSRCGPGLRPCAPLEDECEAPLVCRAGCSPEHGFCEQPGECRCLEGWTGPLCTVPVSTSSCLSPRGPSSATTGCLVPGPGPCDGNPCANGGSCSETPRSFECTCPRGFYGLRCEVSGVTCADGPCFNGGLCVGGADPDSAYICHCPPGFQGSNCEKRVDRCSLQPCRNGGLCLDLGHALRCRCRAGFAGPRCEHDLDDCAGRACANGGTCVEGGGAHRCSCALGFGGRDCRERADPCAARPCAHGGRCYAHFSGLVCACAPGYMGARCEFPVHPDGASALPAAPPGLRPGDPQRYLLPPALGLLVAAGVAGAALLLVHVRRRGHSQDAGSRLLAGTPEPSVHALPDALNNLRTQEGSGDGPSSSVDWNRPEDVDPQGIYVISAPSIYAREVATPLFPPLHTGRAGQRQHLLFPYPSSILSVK
In words: flow cytometry, DLL3/H82 cells. On the procedure: (§1) The plates were centrifuged at 300 g for 5 min, and the supernatant was removed. Different concentrations of test antibodies were added at 100 μL/well. The plates were incubated in the dark in a refrigerator at 4° C. for 1 h. After 3 centrifugal washes at 300 g, working concentrations of APC anti-human IgG Fc (BioLegend, 410712) or PE F(ab′)2-goat anti-human IgG (invitrogen, H10104) were added. The plates were incubated in the dark in a refrigerator at 4° C. for 40 min. After 3 centrifugal washes at 300 g, the geometric mean fluorescence intensity was measured on an Invitrogen flow cytometer, and the EC50 values for the binding of the antibodies to DLL3-expressing cells were calculated.
(In general: A flow cytometer gives signals particle by particle.)

In assay [2] the target is T2, human DLL3 (ACRO, DLL3-H52H4) (human, UniProt Q9NYJ7 27-492).
T2 construct: Bought
T2 sequence: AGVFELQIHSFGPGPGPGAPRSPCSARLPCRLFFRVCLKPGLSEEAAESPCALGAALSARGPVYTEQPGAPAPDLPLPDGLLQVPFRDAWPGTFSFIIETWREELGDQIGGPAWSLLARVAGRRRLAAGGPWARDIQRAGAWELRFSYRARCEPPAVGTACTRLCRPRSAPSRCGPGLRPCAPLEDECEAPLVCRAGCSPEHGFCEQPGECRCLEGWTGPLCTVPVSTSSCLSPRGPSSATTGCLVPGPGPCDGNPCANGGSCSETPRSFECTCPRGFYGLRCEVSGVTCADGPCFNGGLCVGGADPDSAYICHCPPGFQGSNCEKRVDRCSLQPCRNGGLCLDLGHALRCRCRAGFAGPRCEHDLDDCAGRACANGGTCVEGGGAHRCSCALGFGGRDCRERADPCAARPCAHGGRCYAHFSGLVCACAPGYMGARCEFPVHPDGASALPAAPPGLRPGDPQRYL
In words: SPR Biacore 8K, Ab captured on Protein A. The essentials: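 Antibodies captured on a Protein A chip for 18 s; DLL3 or CD3D&3E antigen flowed 180 s, then 600 s dissociation, with real-time detection. Regeneration used 10 mM glycine-HCl pH 1.5 between cycles. Kinetics were obtained by 1:1 model fitting.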
Background: In SPR one partner is held on a chip, and binding of the other changes the refractive index at the surface.

A further assay deals with T3, hPDL1 (human, UniProt Q9NZQ7 19-239).
T3 construct: bought
In words: ELISA. For orientation: An ELISA detects its analyte on a solid surface through an enzyme-linked reagent.

In a further assay the target is T4, hCTLA4 (human, UniProt P16410 36-162, limits assumed).
T4 construct: bought
In words: ELISA.

In assay [3] the target is T1, human DLL3 on cells. In words: flow cytometry, SHP77 cells. The protocol: as §1

Residue numbers refer to the chain shown, from its start.

T3 sequence (Q9NZQ7 19-239 limits assumed): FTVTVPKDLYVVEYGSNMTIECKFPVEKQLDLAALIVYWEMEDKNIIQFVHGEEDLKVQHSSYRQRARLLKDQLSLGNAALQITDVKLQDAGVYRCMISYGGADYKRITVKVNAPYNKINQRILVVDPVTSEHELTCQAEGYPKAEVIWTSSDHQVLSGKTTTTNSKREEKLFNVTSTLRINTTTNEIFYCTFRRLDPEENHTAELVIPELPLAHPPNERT
T4 sequence (P16410 36-162 limits assumed): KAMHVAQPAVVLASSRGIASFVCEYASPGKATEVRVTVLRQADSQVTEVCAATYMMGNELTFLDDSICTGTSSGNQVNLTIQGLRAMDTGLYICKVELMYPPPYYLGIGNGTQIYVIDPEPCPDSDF

B1: hu110L2H2 (antibody, human IgG1, kappa, V domains shown)
VH: EVQLVQSGAEVKKPGASVKVSCKTSGYTFTDYYMNWVRQAPGQSLEWMGIINPYNGGTSYTQKFKGRVTITVDKSASTAYMELSSLRSEDTAVYYCARHFYDSSYLTYSTMDYWGQGTTVTVSS
VL: NIVMTQSPKSLAVSLGERATINCKASENVGIFVSWYQQKPGQSPKLLIYGASNRYTGVPDRFSGSGSATDFTLTISSLQAEDVADYYCGQSHSYPLTFGQGTKLEIKR
As to B1, in the assay with human DLL3 on cells [1], the EC50 amounted to 1.25 nM and the Emax stood at 4750. Besides, in assay [2], the Kd came out at 0.12 nM, the koff stood at 6.25e-05 s⁻¹ and the kon was found to be 521000 M⁻¹ s⁻¹.

B2: hu110L2H6 (antibody, human IgG1, kappa, V domains shown)
VH: B1 VH with G56V
VL: B1 VL
Take B2: in the assay with human DLL3 on cells [1], the 50% effective concentration (EC50) is 1.4 nM and the Emax is 5190. In assay [2], this molecule gave an equilibrium dissociation constant (Kd) of 0.167 nM, an off-rate (koff) of 6.86e-05 s⁻¹ and a kon of 411000 M⁻¹ s⁻¹.

B3: hu110L2H5 (antibody, human IgG1, kappa, V domains shown)
VH: B1 VH with N55T
VL: B1 VL
On to B3, for which, in the assay with human DLL3 on cells [1], the 50% effective concentration (EC50) worked out at 1.71 nM and the Emax is 4670. For the same molecule, in assay [2], the equilibrium dissociation constant (Kd) was 0.206 nM, the koff was 8.96e-05 s⁻¹ and the kon is 434000 M⁻¹ s⁻¹.

B4: hu110L2H4 (antibody, human IgG1, kappa, V domains shown)
VH: B1 VH with N55S
VL: B1 VL
In the assay with human DLL3 on cells [1], B4 registered an EC50 of 1.41 nM and an Emax of 4600. Also, in assay [2], binding was put at a Kd of 0.103 nM, the koff worked out at 5.11e-05 s⁻¹ and the kon was found to be 496000 M⁻¹ s⁻¹.

B5: hu110L2H3 (antibody, human IgG1, kappa, V domains shown)
VH: B1 VH with N55Q
VL: B1 VL
Regarding B5, in the assay with human DLL3 on cells [1], it took 1.32 nM to reach a half-maximal effect (EC50) and the Emax is 4570. In assay [2], this molecule gave an equilibrium dissociation constant (Kd) of 0.117 nM, a dissociation rate constant (koff) of 6.45e-05 s⁻¹ and a kon of 550000 M⁻¹ s⁻¹.

B6: PL-1 (bispecific antibody)
chain 1: not shown
chain 2: DIVLTQSPASLAVSPGQRATITCRASESVSIHGTHLMHWYQQKPGQPPKLLIYAASKLESGVPARFSGSGSGTDFTLTINPVEAEDTANYYCQQSFEDPLTFGQGTKLEIKGGGGSGIPPKIECLPIDISIDEGKVLTVASAFTGEPTPEVTWSTGGRKIHSQEQGRFHIENTDDLTTLIIKDVQKQDGGLYTLTLRNEFGSDSATVNIHIRSI
chain 3: not shown
chain 4: not shown
Turning to B6, the figures for the concentration giving a half-maximal response (EC50) with hPDL1 and with hCTLA4 were 1.6 nM and 16.5 nM, respectively.

B7: PL-17 (bispecific antibody)
chain 1: not shown
chain 2: B6 chain 2 with G112R, G113T, G114V, G115A, L176S, I180T
chain 3: not shown
chain 4: not shown
Take B7: the EC50 was determined as 1.4 nM with hPDL1 and 6.2 nM with hCTLA4.

B8: PL-4 (bispecific antibody)
chain 1: not shown
chain 2: B6 chain 2 with A142C, L176S, I180T
chain 3: not shown
chain 4: not shown
For B8, the half-maximal effective concentration (EC50) in the assay with hPDL1 amounted to 0.7 nM; in the assay with hCTLA4, 6.5 nM.

B9: PL-16 (bispecific antibody)
chain 1: not shown
chain 2: B6 chain 2 with G112R, G113T, G114V, G115A, A142C, L176S, I180T
chain 3: not shown
chain 4: not shown
For B9, the 50% effective concentration (EC50) in the assay with hPDL1 stood at 1.7 nM; with hCTLA4, 34.9 nM.

B10: PL-15 (bispecific antibody)
chain 1: not shown
chain 2: B6 chain 2 with G112R, G113T, G114V, G115A, V136C, L176S, I180T
chain 3: not shown
chain 4: not shown
For the molecule B10, the 50% effective concentration (EC50) with hPDL1 is 1.4 nM; with hCTLA4, 3.2 nM.

B11: PL-8 (bispecific antibody)
chain 1: not shown
chain 2: B6 chain 2 with L176S, I180T
chain 3: not shown
chain 4: not shown
Turning to B11, the EC50 with hPDL1 stood at 1.4 nM; in the assay with hCTLA4 it was 14.5 nM.

B12: PL-13 (bispecific antibody)
chain 1: not shown
chain 2: B6 chain 2 with G112R, G113T, G114V, G115A, A142C, L176S, I180T
chain 3: not shown
chain 4: not shown
For the molecule B12, the results for the EC50 with hPDL1 and in the assay with hCTLA4 were 0.5 nM and 4.4 nM, respectively.

B13: PL-7 (bispecific antibody)
chain 1: not shown
chain 2: B6 chain 2 with A142C, L176S, I180T
chain 3: not shown
chain 4: not shown
Consider B13, for which the EC50 was found to be 0.5 nM with hPDL1 and 7.3 nM in the assay with hCTLA4.

B14: PL-3 (bispecific antibody)
chain 1: not shown
chain 2: B6 chain 2 with V136C, L176S, I180T
chain 3: not shown
chain 4: not shown
As for B14, the figures for the concentration for a half-maximal effect (EC50) with hPDL1 and in the assay with hCTLA4 were 0.6 nM and 7.9 nM, respectively.

B15: PL-6 (bispecific antibody)
chain 1: not shown
chain 2: B6 chain 2 with V136C, L176S, I180T
chain 3: not shown
chain 4: not shown
Turning to B15, the half-maximal effective concentration (EC50) with hPDL1 worked out at 0.8 nM; with hCTLA4, 5.3 nM.

B16: PL-12 (bispecific antibody)
chain 1: not shown
chain 2: B6 chain 2 with G112R, G113T, G114V, G115A, V136C, L176S, I180T
chain 3: not shown
chain 4: not shown
Regarding B16, the 50% effective concentration (EC50) was 0.5 nM with hPDL1 and 8 nM in the assay with hCTLA4.

B17: PL-5 (bispecific antibody)
chain 1: not shown
chain 2: B6 chain 2 with L176S, I180T
chain 3: not shown
chain 4: not shown
On to B17, for which the EC50 worked out at 0.7 nM with hPDL1 and 6.7 nM with hCTLA4.

B18: PL-19 (bispecific antibody)
chain 1: not shown
chain 2: B6 chain 2 with G112R, G113T, G114V, G115A, A142C, L176S, I180T
chain 3: not shown
chain 4: not shown
On to B18, for which the results for the EC50 in the assay with hPDL1 and in the assay with hCTLA4 were 1.6 nM and 6.5 nM, respectively.

B19: PL-11 (bispecific antibody)
chain 1: not shown
chain 2: B6 chain 2 with G112R, G113T, G114V, G115A, L176S, I180T
chain 3: not shown
chain 4: not shown
As to B19, the values for the EC50 with hPDL1 and with hCTLA4 were 0.6 nM and 5.6 nM, respectively.

B20: PL-18 (bispecific antibody)
chain 1: not shown
chain 2: B6 chain 2 with G112R, G113T, G114V, G115A, V136C, L176S, I180T
chain 3: not shown
chain 4: not shown
Take B20: the concentration giving a half-maximal response (EC50) was 1.6 nM in the assay with hPDL1 and 6.7 nM with hCTLA4.

B21: PL-9 (bispecific antibody)
chain 1: not shown
chain 2: B6 chain 2 with V136C, L176S, I180T
chain 3: not shown
chain 4: not shown
On to B21, for which the values for the EC50 in the assay with hPDL1 and in the assay with hCTLA4 were 0.6 nM and 5.5 nM, respectively.

B22: PL-2 (bispecific antibody)
chain 1: not shown
chain 2: B6 chain 2 with L176S, I180T
chain 3: not shown
chain 4: not shown
Regarding B22, the EC50 with hPDL1 is 0.5 nM; with hCTLA4 it was 8 nM.

B23: PL-10 (bispecific antibody)
chain 1: not shown
chain 2: B6 chain 2 with A142C, L176S, I180T
chain 3: not shown
chain 4: not shown
Take B23: the values for the EC50 with hPDL1 and with hCTLA4 were 0.6 nM and 6.9 nM, respectively.

B24: PL-14 (bispecific antibody)
chain 1: not shown
chain 2: B6 chain 2 with G112R, G113T, G114V, G115A, L176S, I180T
chain 3: not shown
chain 4: not shown
B24: the EC50 with hPDL1 turned out to be 1.3 nM; with hCTLA4, 6 nM.

B25: hu30L1H8 (antibody, human IgG1, kappa, V domains shown)
VH: EVRLVQFGAVVKKPGASVKVSCKASGYTFTDYYMNWVRQAPGQSLEWMGIINPYTGDTSYNQKFRGRVTLTVDKSSSTAYMELSSLRSEDTAVYYCARYHYGPHLEGYFDVWGQGTTVTVSS
VL: DIVMTQSPDSLAVSLGERATINCKASENVGYVSWYQQKPGQPPKLLIYGASNRYTGVPDRFSGSGSGTDFTLTISSLQAEDVAVYYCGQSYSYPLTFGQGTKLEIKR
For the molecule B25, in the assay with human DLL3 on cells [3], the concentration giving a half-maximal response (EC50) turned out to be 5.67 nM and the Emax is 1380. Also, in assay [2], the affinity, expressed as Kd, was 2.57 nM; the koff worked out at 0.00109 s⁻¹; the on-rate (kon) is 425000 M⁻¹ s⁻¹.

B26: hu30L1H10 (antibody, human IgG1, kappa, V domains shown)
VH: B25 VH with F7S, V10E, A40S, P41H, S76A
VL: B25 VL
B26: in the assay with human DLL3 on cells [3], the concentration for a half-maximal effect (EC50) was determined as 7.99 nM and the Emax is 1630. For the same molecule, in assay [2], the affinity, expressed as Kd, was 2.19 nM; the off-rate (koff) was 0.000964 s⁻¹; the on-rate (kon) was found to be 440000 M⁻¹ s⁻¹.

As a reminder, the EC50 is the concentration giving half of the maximal effect. A word on the Kd: it is the constant that tells how readily two partners part at equilibrium. Read a low Kd as a tighter complex. What is called koff is a measure of how fast the partners let go of each other. A high value points to fast dissociation. Broadly, the kon is a measure of how fast the partners come together. Low readings indicate slow association, high ones fast association.

Values taken from US20250376519A1 (JIANGSU HENGRUI PHARMACEUTICALS, published 2025).
